Here are results for 134 substances from patent US20250011363A1, “OPTIMIZED SHORTENED PEPTIDE THAT BINDS TO ACETYLCHOLINE RECEPTOR, AND USE THEREOF” (SKINMED CO., LTD., priority 2021, published 2025).

This test has as its target acetylcholine receptor (Homo sapiens, UniProt P02708). The experiment in a line: SPR binding affinity (RU) of optimized 5mer/6mer/7mer peptides, Examples 6-7. To be noted: SPR, Resonance Units; peptides tested at 10 μM; 6mer-2 Bottom sequence. The method in brief:
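Single-concentration screen: 10 μM peptide, SPR detection, binding expressed as RU.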
For orientation: Surface plasmon resonance follows binding to a sensor surface in real time, without labels.

acetylcholine receptor, sequence (P02708 21-457): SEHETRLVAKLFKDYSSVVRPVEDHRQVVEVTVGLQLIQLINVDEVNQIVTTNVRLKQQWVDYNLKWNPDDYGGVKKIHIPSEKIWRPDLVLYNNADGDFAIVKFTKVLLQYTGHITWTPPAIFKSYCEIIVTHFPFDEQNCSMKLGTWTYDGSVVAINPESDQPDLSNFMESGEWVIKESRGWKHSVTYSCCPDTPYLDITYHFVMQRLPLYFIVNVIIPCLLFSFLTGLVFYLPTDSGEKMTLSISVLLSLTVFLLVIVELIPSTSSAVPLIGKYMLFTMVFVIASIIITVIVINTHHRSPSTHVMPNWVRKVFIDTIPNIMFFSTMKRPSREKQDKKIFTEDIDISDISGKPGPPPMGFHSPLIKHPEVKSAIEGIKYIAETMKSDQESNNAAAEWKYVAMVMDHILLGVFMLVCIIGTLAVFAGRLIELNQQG

6mer-2-830 (RMKFKR): the Binding affinity was 21 Ru.

Turning to 6mer-2-831 (RMTWRK), the Binding affinity came out at 29 Ru.

On to 6mer-2-832 (KYHNRR), for which the Binding affinity is on record as 32 Ru.

Consider 6mer-2-833 (RKTWRR), for which the Binding affinity is given as 14 Ru.

Regarding 6mer-2-834 (RFWWKR), the Binding affinity amounted to 28 Ru.

In the case of 6mer-2-835 (RHCGKR), the Binding affinity was 20 Ru.

Take 6mer-2-836 (KNTMKR): the Binding affinity stood at 26 Ru.

Regarding 6mer-2-837 (REDFRR), the Binding affinity is listed as 32 Ru.

On to 6mer-2-838 (RCTVRK), for which the Binding affinity is on record as 13 Ru.

Regarding 6mer-2-839 (KNHNRR), the Binding affinity stood at 32 Ru.

For 6mer-2-840 (KDWDRK), the Binding affinity was 15 Ru.

As to 6mer-2-841 (KPNHRK), the Binding affinity is on record as 33 Ru.

With 6mer-2-842 (KPKMRR), the Binding affinity is 22 Ru.

With 6mer-2-843 (KAPDRK), the Binding affinity is on record as 33 Ru.

Regarding 6mer-2-844 (RDPKKK), the Binding affinity was found to be 22 Ru.

In the case of 6mer-2-845 (KMKEKR), the Binding affinity was determined as 14 Ru.

Consider 6mer-2-846 (RFSFKR), for which the Binding affinity stood at 30 Ru.

Turning to 6mer-2-847 (RYCHKR), the Binding affinity was 22 Ru.

As to 6mer-2-848 (RMTERK), the Binding affinity is recorded as 29 Ru.

For the substance 6mer-2-849 (RNTAKK), the Binding affinity came out at 13 Ru.

6mer-2-850 (KTSMKR): the Binding affinity was 16 Ru.

For 6mer-2-851 (KFWWRR), the Binding affinity worked out at 19 Ru.

6mer-2-852 (RNCERR): the Binding affinity came out at 28 Ru.

As for 6mer-2-853 (KHTGRR), the Binding affinity turned out to be 29 Ru.

Turning to 6mer-2-854 (RCNWKR), the Binding affinity was found to be 23 Ru.

In the case of 6mer-2-855 (REMIKR), the Binding affinity is 19 Ru.

Regarding 6mer-2-856 (KEPMRR), the Binding affinity came to 14 Ru.

As for 6mer-2-857 (KHTEKK), the Binding affinity was found to be 20 Ru.

Take 6mer-2-858 (KEEHRR): the Binding affinity was 30 Ru.

On to 6mer-2-859 (RMDFRK), for which the Binding affinity is given as 21 Ru.

In the case of 6mer-2-860 (KPNFRR), the Binding affinity stood at 31 Ru.

As for 6mer-2-861 (KDTDRK), the Binding affinity was 21 Ru.

Turning to 6mer-2-862 (RHTFKK), the Binding affinity was 29 Ru.

Take 6mer-2-863 (RKHWRR): the Binding affinity is listed as 17 Ru.

On to 6mer-2-864 (RKCAKK), for which the Binding affinity is 12 Ru.

With 6mer-2-865 (RHCNRK), the Binding affinity stood at 16 Ru.

As to 6mer-2-866 (RDNPKK), the Binding affinity is recorded as 24 Ru.

6mer-2-867 (KYWEKK): the Binding affinity turned out to be 32 Ru.

Take 6mer-2-868 (RTPNRR): the Binding affinity is 30 Ru.

Regarding 6mer-2-869 (RHDHKR), the Binding affinity is listed as 18 Ru.

In the case of 6mer-2-870 (KMTEKK), the Binding affinity is on record as 21 Ru.

With 6mer-2-871 (REMPKR), the Binding affinity is 31 Ru.

As to 6mer-2-872 (KTHFRK), the Binding affinity was found to be 28 Ru.

As for 6mer-2-873 (KNWGRR), the Binding affinity was 11 Ru.

Consider 6mer-2-874 (KIHFRK), for which the Binding affinity came out at 33 Ru.

6mer-2-875 (RIDHRK): the Binding affinity stood at 13 Ru.

Consider 6mer-2-876 (KEDNKR), for which the Binding affinity worked out at 17 Ru.

Turning to 6mer-2-877 (KPPERR), the Binding affinity worked out at 17 Ru.

With 6mer-2-878 (KETVRR), the Binding affinity was found to be 24 Ru.

6mer-2-879 (RTMDRR): the Binding affinity is 19 Ru.

In the case of 6mer-2-880 (RTHHKK), the Binding affinity was 12 Ru.

Turning to 6mer-2-881 (KDTEKK), the Binding affinity amounted to 33 Ru.

6mer-2-882 (RTPAKR): the Binding affinity turned out to be 15 Ru.

As for 6mer-2-883 (RTNEKR), the Binding affinity was found to be 22 Ru.

On to 6mer-2-884 (KMTMKK), for which the Binding affinity came out at 11 Ru.

For 6mer-2-885 (KCMVRR), the Binding affinity turned out to be 17 Ru.

On to 6mer-2-886 (KTWVRR), for which the Binding affinity came out at 13 Ru.

As to 6mer-2-887 (RCPKKR), the Binding affinity is given as 18 Ru.

Regarding 6mer-2-888 (RIAKRK), the Binding affinity came to 17 Ru.

Consider 6mer-2-889 (REWDKK), for which the Binding affinity was found to be 12 Ru.

In the case of 6mer-2-890 (RDNPKR), the Binding affinity was found to be 30 Ru.

Regarding 6mer-2-891 (RTSIRK), the Binding affinity was 28 Ru.

Turning to 6mer-2-892 (KDENRK), the Binding affinity is 27 Ru.

With 6mer-2-893 (REHVRR), the Binding affinity turned out to be 17 Ru.

Consider 6mer-2-894 (RFHWRR), for which the Binding affinity is recorded as 22 Ru.

On to 6mer-2-895 (KYMAKK), for which the Binding affinity is given as 28 Ru.

As to 6mer-2-896 (RTCARR), the Binding affinity is on record as 30 Ru.

As to 6mer-2-897 (RPAHKK), the Binding affinity worked out at 17 Ru.

6mer-2-898 (KKKDKK): the Binding affinity came out at 16 Ru.

In the case of 6mer-2-899 (KKMVKR), the Binding affinity turned out to be 13 Ru.

For the substance 6mer-2-900 (RFSAKK), the Binding affinity worked out at 11 Ru.

Turning to 6mer-2-901 (RYWDRK), the Binding affinity is listed as 34 Ru.

For 6mer-2-902 (KPDVRK), the Binding affinity is on record as 26 Ru.

As for 6mer-2-903 (KKNPKK), the Binding affinity was 40 Ru.

For the substance 6mer-2-904 (KCCFKK), the Binding affinity stood at 30 Ru.

Consider 6mer-2-905 (RPKERR), for which the Binding affinity came to 26 Ru.

With 6mer-2-906 (KYCDKK), the Binding affinity worked out at 40 Ru.

In the case of 6mer-2-907 (RTMNRR), the Binding affinity turned out to be 25 Ru.

Turning to 6mer-2-908 (KYKKKR), the Binding affinity is 33 Ru.

6mer-2-909 (RCNPRR): the Binding affinity amounted to 42 Ru.

For the substance 6mer-2-910 (RHEHRR), the Binding affinity was 21 Ru.

For the substance 6mer-2-911 (KMSGKR), the Binding affinity stood at 21 Ru.

As for 6mer-2-912 (RAPIRR), the Binding affinity is reported as 27 Ru.

Turning to 6mer-2-913 (KFKNRR), the Binding affinity was determined as 25 Ru.

For the substance 6mer-2-914 (KDDIKK), the Binding affinity is 25 Ru.

6mer-2-915 (KNCWKR): the Binding affinity was determined as 29 Ru.

For 6mer-2-916 (KTTEKR), the Binding affinity came out at 22 Ru.

For the substance 6mer-2-917 (RFCWRK), the Binding affinity was found to be 23 Ru.

As to 6mer-2-918 (KNWMRK), the Binding affinity is 35 Ru.

As for 6mer-2-919 (KAKHKR), the Binding affinity amounted to 27 Ru.

Regarding 6mer-2-920 (RMTIKK), the Binding affinity was 26 Ru.

Take 6mer-2-921 (RPKAKK): the Binding affinity is 22 Ru.

With 6mer-2-922 (KDNVRR), the Binding affinity turned out to be 41 Ru.

Take 6mer-2-923 (RCCAKK): the Binding affinity is given as 33 Ru.

Turning to 6mer-2-924 (RFDHKK), the Binding affinity stood at 28 Ru.

Take 6mer-2-925 (RASVKR): the Binding affinity turned out to be 23 Ru.

With 6mer-2-926 (RPTVKR), the Binding affinity amounted to 31 Ru.

Consider 6mer-2-927 (RFNPRK), for which the Binding affinity amounted to 39 Ru.

On to 6mer-2-928 (KFCIRR), for which the Binding affinity turned out to be 28 Ru.

Consider 6mer-2-929 (KNHMRK), for which the Binding affinity was 26 Ru.

As for 6mer-2-930 (RTWIKR), the Binding affinity was found to be 37 Ru.

With 6mer-2-931 (RYCFKR), the Binding affinity turned out to be 29 Ru.

Regarding 6mer-2-932 (RIPWRR), the Binding affinity came to 35 Ru.

As to 6mer-2-933 (RYSMKR), the Binding affinity is on record as 34 Ru.

As to 6mer-2-934 (KYKDRR), the Binding affinity came to 26 Ru.

Consider 6mer-2-935 (KKCNKK), for which the Binding affinity came to 22 Ru.

6mer-2-936 (KPPAKK): the Binding affinity was 21 Ru.

As for 6mer-2-937 (RASHRR), the Binding affinity came to 35 Ru.

Take 6mer-2-938 (RIEHKR): the Binding affinity stood at 40 Ru.

Take 6mer-2-939 (KKCARR): the Binding affinity was 22 Ru.

In the case of 6mer-2-940 (RNENKK), the Binding affinity turned out to be 41 Ru.

In the case of 6mer-2-941 (RDEDKR), the Binding affinity is 33 Ru.

Consider 6mer-2-942 (KTDKRK), for which the Binding affinity is recorded as 22 Ru.

As for 6mer-2-943 (KIDHRR), the Binding affinity is given as 41 Ru.

As to 6mer-2-944 (KPEDKK), the Binding affinity turned out to be 35 Ru.

Turning to 6mer-2-945 (KKCERK), the Binding affinity came to 42 Ru.

As for 6mer-2-946 (KPCEKK), the Binding affinity stood at 21 Ru.

As to 6mer-2-947 (KTNWRK), the Binding affinity turned out to be 41 Ru.

In the case of 6mer-2-948 (RPPFRR), the Binding affinity turned out to be 28 Ru.

Regarding 6mer-2-949 (RPNARR), the Binding affinity was 39 Ru.

As to 6mer-2-950 (KYNKRR), the Binding affinity amounted to 26 Ru.

6mer-2-951 (RADEKK): the Binding affinity was 42 Ru.

As for 6mer-2-952 (KYWGRR), the Binding affinity was determined as 24 Ru.

On to 6mer-2-953 (KESVKK), for which the Binding affinity was 25 Ru.

On to 6mer-2-954 (KCTIRK), for which the Binding affinity is on record as 32 Ru.

For 6mer-2-955 (RMPERR), the Binding affinity came to 29 Ru.

6mer-2-956 (KFCWRR): the Binding affinity is given as 28 Ru.

Regarding 6mer-2-957 (RDTHRR), the Binding affinity was 40 Ru.

6mer-2-958 (KFKARK): the Binding affinity is 28 Ru.

Turning to 6mer-2-959 (RTNARK), the Binding affinity turned out to be 35 Ru.

Consider 6mer-2-960 (RDCVKR), for which the Binding affinity is listed as 29 Ru.

On to 6mer-2-961 (KNTKKR), for which the Binding affinity was determined as 21 Ru.

Regarding 6mer-2-962 (KKSNRK), the Binding affinity was found to be 30 Ru.

On to 6mer-2-963 (KAKHRR), for which the Binding affinity is 37 Ru.
